Data set [1] deals with T1, F-HA-Zic2 (UniProt Q62520 1-530). As to the kind of experiment: competition; against N8; inhibits complex formation; Footprinting: 20 mM Tris-HCl pH 8.0, 3 mM MgCl2, 5 mM CaCl2, 100 mM NaCl, 100 mM DTT, 0.1 mM EDTA, 50 ug/ml BSA, 25 C, 30 min; EMSA conditions as in earlier work. To be noted: protein: recombinant; tags: N-terminal FLAG-HA; label: none. Background: Mobility shift assays separate free from complexed probe on a gel.

Data set [2] deals with T1, F-HA-Zic2. Nature of the data set: competition; against N1; shifted bands disappear completely; Footprinting: 20 mM Tris-HCl pH 8.0, 3 mM MgCl2, 5 mM CaCl2, 100 mM NaCl, 100 mM DTT, 0.1 mM EDTA, 50 ug/ml BSA, 25 C, 30 min; EMSA conditions as in earlier work. Conditions: protein: recombinant; tags: N-terminal FLAG-HA; label: none.
Data set [3] concerns the target GLI3-ZF-CH6 (GLI3 ZFD) (UniProt P10071 480-632). As to the kind of experiment: EMSA; preferred over ZBS core; Footprinting: 20 mM Tris-HCl pH 8.0, 3 mM MgCl2, 5 mM CaCl2, 100 mM NaCl, 100 mM DTT, 0.1 mM EDTA, 50 ug/ml BSA, 25 C, 30 min; EMSA conditions as in earlier work. Conditions: protein: recombinant; blunt.
For data set [4], the target named is T1, F-HA-Zic2. As to the kind of experiment: EMSA; even at 3-fold excess over ZBS core; Footprinting: 20 mM Tris-HCl pH 8.0, 3 mM MgCl2, 5 mM CaCl2, 100 mM NaCl, 100 mM DTT, 0.1 mM EDTA, 50 ug/ml BSA, 25 C, 30 min; EMSA conditions as in earlier work. Conditions: protein: recombinant; tags: N-terminal FLAG-HA; blunt.
Data set [5] addresses T1, F-HA-Zic2. As to the kind of experiment: competition; against N9; inhibits complex formation; Footprinting: 20 mM Tris-HCl pH 8.0, 3 mM MgCl2, 5 mM CaCl2, 100 mM NaCl, 100 mM DTT, 0.1 mM EDTA, 50 ug/ml BSA, 25 C, 30 min; EMSA conditions as in earlier work. Conditions: protein: recombinant; tags: N-terminal FLAG-HA; label: none.

T1 sequence (Q62520 whole entry): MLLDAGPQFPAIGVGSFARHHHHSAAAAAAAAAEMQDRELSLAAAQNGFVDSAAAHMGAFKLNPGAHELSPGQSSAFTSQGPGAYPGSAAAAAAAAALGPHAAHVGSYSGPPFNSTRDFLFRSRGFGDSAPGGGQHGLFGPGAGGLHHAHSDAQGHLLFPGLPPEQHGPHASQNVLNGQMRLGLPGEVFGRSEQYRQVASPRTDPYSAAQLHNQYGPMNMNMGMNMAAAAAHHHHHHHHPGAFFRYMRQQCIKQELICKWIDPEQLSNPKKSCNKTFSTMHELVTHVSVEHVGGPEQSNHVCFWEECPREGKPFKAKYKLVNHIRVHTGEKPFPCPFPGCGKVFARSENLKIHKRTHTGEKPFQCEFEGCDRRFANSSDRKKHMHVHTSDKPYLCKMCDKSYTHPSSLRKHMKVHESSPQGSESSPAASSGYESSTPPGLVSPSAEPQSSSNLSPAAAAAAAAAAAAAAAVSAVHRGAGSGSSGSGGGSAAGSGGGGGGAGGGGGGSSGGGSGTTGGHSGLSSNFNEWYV
GLI3-ZF-CH6 (GLI3 ZFD), sequence (P10071 480-632): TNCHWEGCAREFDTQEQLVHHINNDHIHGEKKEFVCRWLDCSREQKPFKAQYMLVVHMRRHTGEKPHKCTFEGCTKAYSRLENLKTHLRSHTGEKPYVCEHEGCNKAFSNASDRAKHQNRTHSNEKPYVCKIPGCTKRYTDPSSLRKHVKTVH

B1: cp8 (-1688 to -1669) (dsDNA)
DNA 1: GTCATCCCCTGCCGGGTCCC
DNA 2: GGGACCCGGCAGGGGATGAC
Turning to B1, the binding result in data set [1] was “binds”.

B2: cp4 (-1728 to -1709) (dsDNA)
DNA 1: CCCGCACCACATGAGTCCCG
DNA 2: CGGGACTCATGTGGTGCGGG
Turning to B2, the binding result in data set [2] is “binds”.

B3: GBS probe (dsDNA)
DNA 1: CGTCTTGGGTGGTCTCCCTC
DNA 2: GAGGGAGACCACCCAAGACG
B3: the binding result was “binds” in data set [3] and “no binding” in data set [4].

B4: cp11 (-1830 to -1811) (dsDNA)
DNA 1: CCCGAGTCCCCGGCGGATGT
DNA 2: ACATCCGCCGGGGACTCGGG
In the case of B4, the binding result in data set [5] is listed as “binds”.

These data come from article PMC5794963, “Link between the causative genes of holoprosencephaly: Zic2 directly regulates Tgif1 expression”.
